The target of test [1] is human FcγRI (CD64) on cells (human) (UniProt P12314). Description: flow cytometry, fluorescein-conjugated antibody on peripheral blood monocytes.
Target sequence in this assay (P12314 16-374): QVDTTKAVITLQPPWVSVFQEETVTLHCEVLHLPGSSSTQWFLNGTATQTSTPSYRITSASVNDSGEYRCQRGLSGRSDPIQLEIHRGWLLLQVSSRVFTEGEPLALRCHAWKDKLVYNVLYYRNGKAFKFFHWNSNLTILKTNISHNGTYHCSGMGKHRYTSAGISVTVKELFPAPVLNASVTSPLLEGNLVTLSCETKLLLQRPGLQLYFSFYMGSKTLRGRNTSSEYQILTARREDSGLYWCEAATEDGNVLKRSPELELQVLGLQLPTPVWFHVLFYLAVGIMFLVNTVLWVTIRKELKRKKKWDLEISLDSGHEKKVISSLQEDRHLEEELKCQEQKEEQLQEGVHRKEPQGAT
In test [2] the target is soluble fusion protein consisting of the extracellular domain of human FcγRI and human IgM heavy chain (sFcγRI-µ) (human) (UniProt P12314). As to the kind of experiment: ELISA on captured FcγRI/IgM heavy chain fusion protein, against a nonspecific human IgG1. (ELISA stands for enzyme-linked immunosorbent assay.)
Sequence of soluble fusion protein consisting of the extracellular domain of human FcγRI and human IgM heavy chain (sFcγRI-µ) (human) (P12314 other isoform, or with tags, fused parts or gaps limits assumed): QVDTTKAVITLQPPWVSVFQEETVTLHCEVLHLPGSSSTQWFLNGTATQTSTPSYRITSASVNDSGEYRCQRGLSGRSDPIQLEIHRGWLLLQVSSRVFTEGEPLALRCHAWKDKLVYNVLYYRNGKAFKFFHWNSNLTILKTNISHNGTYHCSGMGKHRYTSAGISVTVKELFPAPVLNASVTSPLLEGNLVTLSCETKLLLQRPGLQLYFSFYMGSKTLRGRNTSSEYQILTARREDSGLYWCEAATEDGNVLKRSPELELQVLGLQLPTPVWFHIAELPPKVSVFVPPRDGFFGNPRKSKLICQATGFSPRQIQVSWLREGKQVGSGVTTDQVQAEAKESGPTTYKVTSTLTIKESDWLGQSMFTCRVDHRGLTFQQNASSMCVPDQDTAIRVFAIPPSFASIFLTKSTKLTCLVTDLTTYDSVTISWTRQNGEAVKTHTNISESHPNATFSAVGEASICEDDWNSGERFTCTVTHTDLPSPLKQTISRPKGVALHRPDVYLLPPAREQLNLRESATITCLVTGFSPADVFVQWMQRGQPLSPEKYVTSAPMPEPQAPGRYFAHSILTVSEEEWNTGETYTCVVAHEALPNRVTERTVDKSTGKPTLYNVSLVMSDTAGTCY
For test [3] the target is unchanged. As to the kind of experiment: ELISA on captured FcγRI/IgM heavy chain fusion protein, in excess human IgG1.
Test [4] has as its target human FcγRI (CD64) on cells (human) (UniProt P12314). Description: cell-based or functional assay.

Where only a bound is given, the exact number is not on record here.

In test [1], “murine anti-FcγRI monoclonal antibody M22” gave an Antibody sites per cell (antibody sites per cell) of 10000.
For the substance “NEWM VH/REI Vκ humanized mAb 22 (antibody)”, in test [2], the percent of binding via the Fv portion was > 95%. Besides, the fold lower affinity than the chimeric mAb in test [3] turned out to be 5 fold.
As to “chemically linked M22 Fab′ multimer M22 F(ab′)3+”, the human CD64 surface expression on macrophages of human CD64-transgenic mice in test [4] is < 50 % reduction.
In turn, TsAb m22 Fab′x32.2 Fab′xm22 Fab′ showed a FcγRI expression on monocytes in whole blood (modulation assay) (% of the level prior to BsAb treatment) in test [4] of 50.

Source of the values: patent US6365161.
